Assay results from the RNAGym collection of RNA variant scans (doi:10.1073/pnas.2313332121).
Fewer inactive variants are shown than the library holds.

B1: TPR 5TU (parent)
chain: GGAUCUUCUCGAUCUAACAAAAAAGACAAAUCUGCCACAAAGCUUGAGAGCAUCUUCGGAUGCAGAGGCGGCAGCCUUCGGUGGCGCGAUAGCGCCAACGUUCUCAACUAUGACACGCAAAACGCGUGCUCCGUUGAAUGGAGUUUAUCAUG

Variants of: B1
Test: polymerase ribozyme fitness, log enrichment relative to wild type (log ratio); higher = more active; in vitro selection for triplet polymerase activity
Outline: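 Mutant libraries were PCR-built and transcribed for each subunit of a heterodimeric triplet polymerase ribozyme and selected for one round in triplicate at −7 °C, frozen, before gel excision of extended constructs and streptavidin-bead capture. Input and output libraries were Illumina-sequenced, keeping genotypes with ≥10 input reads and ≥1 read per output. Fitness is a logarithmic ratio of genotype to wild-type enrichment, in base 2, using inverse-variance-weighted replicate averages.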

Variant | polymerase ribozyme fitness (log ratio)
G48A C57G A60G C63A C99G | ≤ -4.2
A47C A122U | -1.45
A47C C95U C116A | -0.555
G48A G88A C105G A115U | -3.86
A47G G84A G128C | -3.37
G48A G62A C96A C132G U134G A147C | ≤ -4.2
A47C G94A | -2.54
G48A G59A G86A U104G A110U | ≤ -4.2
G48A A52U U56A U78A A98U U139C | ≤ -4.2
A47C C57A G84C G86U U146C C149U | ≤ -4.2
G46U C69G | -0.758
A47C U55A A60G | -0.228
A47C C95U C96U C118U C131U | -1.83
G46A U56G A91G U148A | ≤ -4.2
A47C G62A G70A U82A C85U G86A G152C | ≤ -4.2
A47C A91C G112C G133C C149U | ≤ -4.2
A47C A52G U77G G94U C99U | ≤ -4.2
A47U G92U | -0.338
A47C A49C U144G | -4
G48A U135A | -0.864
A47U U55A A89G A120U U144G | -0.697

Variant | polymerase ribozyme fitness (log ratio)
G46A U55G C79A C85G A97U | ≤ -4.2
A47C G59A G84U G94U G124A | -3.56
G46U G83U | -2.29
G46C C105G | 1.29
A47G G83C U134A G140U | -4.17
G48A C99U U111A A137G A147C | ≤ -4.2
A47C C129G | -4.19
A47U G86U U134A | -3.84
G48A G50A U56G U148C | ≤ -4.2
A47U A52U C93A C125G U135C | ≤ -4.2
A47G C96U G124C | -1.06
A47C C63U C79A G80A G86C U102C | ≤ -4.2
A47C C87U | -0.109
A47C G141A | -1.5
A47G C99U | 0.0144
A47U C51A G58A G80A G83A C103U | ≤ -4.2
G46C C76U | ≤ -4.2
G46U C103G G124A U151G | ≤ -4.2
A47C C85A C118U | -0.946
A47C G126A | 0.0505
A47G C51U C87U | -0.414

Variant | polymerase ribozyme fitness (log ratio)
A47C U56A A60G C85U C96U A150U | -0.791
A47C G59A C72U G81C A89G G128C U134C | ≤ -4.2
G46U G68C G94C | ≤ -4.2
G46C A52G C63A G71A A110G A113U | ≤ -4.2
A47C U134G G136A | -0.632
G46C C96U A98U A106G | -0.573
G48A A49U G70U C75A G88A | ≤ -4.2
G46A U53G | -3.49
A47U C76U | -0.942
A47G C87U C99U | -1.24
A47G G74A U101G A121C U145C | ≤ -4.2
A47U C96G C116U | -0.28
G48A C54U G94C | -1.21
A47G U61A | -1.41
A47U G48U G80C C93U | ≤ -4.2
A47C A49G | -0.809
A47G C123U C129G | -3.23
G46C C85U A110U | -4.17
G46A U53A G83A U90A G92A U134A | ≤ -4.2
A47U C69U C93A A107C A115C | ≤ -4.2
A47G G58C G65A G141U | -1.24

Variant | polymerase ribozyme fitness (log ratio)
A47U U55G | -1.03
A47U U55A | -0.542
A47G U102C A142C C149U | ≤ -4.2
G46U C87A G88A G143U U148A | ≤ -4.2
A47U U56A C87G A115C G141A | -3.84
G48A G83U A98G G140C | ≤ -4.2
G48A G59U G94A C114A C125A | ≤ -4.2
G46C G58C G83C C125A | -4.17
A47G U56A U134G | -2.17
G48A G59A A60G A97G | -3.58
G48A G92U C123A | -0.538
A47U G62C G84U | -3.86
G46C C54U G94A C99A A142U U151C | ≤ -4.2
G48A C76A G94C A106G U127A G141C | ≤ -4.2
G46A U53A U77A G80A C85A A98U U102C C132G A138G | ≤ -4.2
A47G U53A C57A G84U C99U U134G G141C | ≤ -4.2
A47G U90A C95A A98G A138U A147C | ≤ -4.2
A47U G124A | 0.304
A47U A73U A147C | -2.13
A47C G48C G74C U78G G143U | ≤ -4.2
A47G U78A G81U G86C U127G A138C | ≤ -4.2
